We go through seven molecules from US20210122805A1 (Bristol-Myers Squibb, published 2021).

Changes are numbered by the printed parent chain.

Test [1] has as its target VEGFR2 fusion protein (extracellular domain of hVEGFR2 and intracellular domain of hEpoR) on Ba/F3 cells (human) (UniProt P35968). In words: cell-based or functional assay.
For test [2], the target named is T1, human PCSK9 (human, UniProt Q8NBP7 31-692).
T1 construct: also called hPCSK9; recombinant human PCSK9
In words: PCSK9:EGFA FRET competition assay, 5 nM PCSK9; competitor EGFA peptide. The text has this: (§1) Two fluorescence resonance energy transfer (FRET) based assays were used to determine the competitive binding potency of PRD460 and other adnectins to hPCSK9. The PCSK9:EGFA FRET assay measures the binding of PCSK9 to the LDLR, using a soluble epidermal growth factor precursor homology domain-A (EGFA) peptide and recombinant human PCSK9.

For test [3], the target named is T1, human PCSK9. In words: PCSK9:ATI-972 FRET assay, 5 nM human PCSK9; displaced competitor: biotinylated ATI-972.
The target in test [4] is T1, human PCSK9. In words: cell-based or functional assay.
In test [5] the target is T1, human PCSK9. In words: PCSK9:ATI-972 FRET competition assay, 5 nM human PCSK9; competitor biotinylated ATI-972.
Text: as §1

The target of a further test is VEGFR2 (Homo sapiens (Human), UniProt P35968 20-764). The test can be described thus: SPR (Biacore), 10Fn3 protein or Fc fusion captured by anti-His or anti-human antibody, target in flow, 25 C, 1:1 fit. On the procedure: (§2) The binding properties of Fc-¹⁰Fn3 fusion proteins and non-Fc ¹⁰Fn3 proteins were characterized by Surface Plasmon Resonance (SPR). Anti-human or anti-Histidine antibody was immobilized on a Biacore chip, and ¹⁰ Fn3 proteins and Fc-¹⁰Fn3 fusions were captured on the chip surface. Varying concentrations of target were placed into the flow solution using MgCl2 (3 M) for chip regeneration between cycles. Kinetic determinations were performed at 25° C. Evaluation of the kinetic parameters was performed using the 1:1 binding algorithm on the Biacore Evaluation software.

In test [6] the target is T1, human PCSK9. The test can be described thus: SPR (Biacore), ATI-1081 captured by anti-His antibody, hPCSK9 in flow, 25 C, 1:1 fit. As to the method: The binding characteristics were characterized by Surface Plasmon Resonance (SPR). […] Varying concentrations of hPCSK9 were placed into the flow solution using MgCl2 (3 M) for chip regeneration between cycles. […] Duplicate experiments for PRD460 were performed on different days. Kinetic determinations were performed at 25° C. Evaluation of the kinetic parameters was performed using the 1:1 Binding algorithm on the Biacore Evaluation software.

The target in test [7] is T1, human PCSK9. The test can be described thus: SPR (Biacore), 10Fn3 protein or Fc fusion captured by anti-His or anti-human antibody, target in flow, 25 C, 1:1 fit. As to the method:
as §2
On the technique in general: SPR reads the build-up and loss of mass on a sensor chip optically.

In test [1], CT322 (designed binder) showed an IC50 (nM), Ba/F3 proliferation assay of 7.96 nM and a Relative Potency, Ba/F3 proliferation assay of 1.

B1: ATI-1174 (designed binder)
chain: MGVSDVPRDLEVVAATPTSLLISWVPPSDDYGYYRITYGETGGNSPVQEFTVPIGKGTATISGLKPGVDYTITVYAVEFPWPHAGYYHRPISINYRTEIEKPCQ
modifications: pegylated (site and PEG size not stated)
notes: also called pegylated anti-PCSK9 Adnectin
Broadly, the EC50 is the concentration needed to bring the measured effect to its halfway point. Read a high EC50 as weaker potency. With B1, the concentration for a half-maximal effect (EC50) with human PCSK9 [2] was determined as 1.9 nM. Also, the “IC50 (read off the curve)” value in the test with human PCSK9 [3] was ~0.9 nM. Further, in the test with human PCSK9 [4], the “EC50 of inhibition of PCSK9-AF647 intracellular fluorescence in HepG2 cells” value worked out at 10 nM and the “EC50 of inhibition of PCSK9-induced LDLR depletion from HepG2 cell surface (FACS)” value amounted to 8 nM.

B2: ATI-1114 (designed binder)
chain: MGVSDVPRDLEVVAATPTSLLISWVPPSDDYGYYRITYGETGGNSPVQEFTVPIGKGTATISGLKPGVDYTITVYAVEFPWPHAGYYHRPISINYRTGSGCHHHHHH
modifications: pegylated (site and PEG size not stated)
Turning to B2, in the test with human PCSK9 [5], a half-maximal effect (EC50) was put at 0.8 nM. That is a sub-nanomolar value.

B3: C7FL (designed binder)
chain: VSDVPRDLEVVAATPTSLLISWRHPHFPTRYYRITYGETGGNSPVQEFTVPLQPPTATISGLKPGVDYTITVYAVTDGRNGRLLSIPISINYRT
notes: No Fc; anti-VEGFR2 10Fn3; not shown: the N-terminal extension, C-terminal tail and His tag of the non-Fc C7FL protein, none of which is stated for it
One may read the Kd as the equilibrium constant for the complex coming apart. A low value points to higher affinity. The koff is the first-order rate constant of dissociation. The low end stands for a long-lived complex, the high end for a short-lived complex. As a reminder, the kon is the rate constant with which the complex forms. A higher kon goes with fast association. Consider B3, for which, in the test with VEGFR2, the dissociation constant Kd was determined as 11.5 nM, the koff came to 0.000236 s⁻¹ and the kon turned out to be 20500 M⁻¹ s⁻¹.

B4: ATI-1081 (designed binder)
chain: MGVSDVPRDLEVVAATPTSLLISWVPPSDDYGYYRITYGETGGNSPVQEFTVPIGKGTATISGLKPGVDYTITVYAVEFPWPHAGYYHRPISINYRTEIDKPSQHHHHHH
notes: No Fc
B4: in the test with human PCSK9 [6], binding was characterised by a dissociation constant (Kd) of 6.7 nM, the dissociation rate constant (koff) is 0.000245 s⁻¹ and the kon was determined as 36500 M⁻¹ s⁻¹. In the test with human PCSK9 [7], this molecule gave an equilibrium dissociation constant (Kd) of 6.7 nM, a dissociation rate constant (koff) of 0.000245 s⁻¹ and a kon of 36500 M⁻¹ s⁻¹. The same molecule registered an EC50 with human PCSK9 [2] of 3.7 nM. The midpoint of the response with human PCSK9 [5], the EC50, lay at 2.8 nM. In addition, the “EC50 of inhibition of PCSK9-induced LDLR depletion from HepG2 cell surface (FACS)” value in the test with human PCSK9 [4] came out at 9 nM.

B5: 1784F03 (designed binder, from a related filing)
chain: MGVSDVPRDLEVVAATPTSLLISWRPPIHAYGYYRITYGETGGNSPVQEFTVPIVEGTATISGLKPGVDYTITVYAVEYTFKHSGYYHRPISINYRTEIDKPSQHHHHHH
In the test with human PCSK9 [7], B5 gave a Kd of 34.5 nM, a koff of 0.000396 s⁻¹ and a kon of 11500 M⁻¹ s⁻¹. In addition, the IC50, HepG2 depletion inhibition with human PCSK9 [4] came to 13.2 nM.

B6: 1813E02 (designed binder, from a related filing)
chain: B5 chain with R25S, I28A, H29N, A30G, I54V, V55G, E56R, F81Y, H83G
In the test with human PCSK9 [7], B6 registered a dissociation constant (Kd) of 22.2 nM, a koff of 0.000388 s⁻¹ and a kon of 17500 M⁻¹ s⁻¹. This molecule also had an IC50, HepG2 depletion inhibition with human PCSK9 [4] of 10.6 nM.
